From patent US6998383B2, “Inhibitors of receptor activator of NF-κB and uses thereof” (Research Development Corporation, priority 2001, dated 2006)

Target: T1, TRAF2 binding to the cytoplasmic domain of RANK (Homo sapiens, UniProt Q12933)
T1 construct: expressed in transfected cells; host or cells: human 293 cells (TRAF lysate); The GST-RANK fusion was purified as previously described
T1 sequence (Q12933 1-501): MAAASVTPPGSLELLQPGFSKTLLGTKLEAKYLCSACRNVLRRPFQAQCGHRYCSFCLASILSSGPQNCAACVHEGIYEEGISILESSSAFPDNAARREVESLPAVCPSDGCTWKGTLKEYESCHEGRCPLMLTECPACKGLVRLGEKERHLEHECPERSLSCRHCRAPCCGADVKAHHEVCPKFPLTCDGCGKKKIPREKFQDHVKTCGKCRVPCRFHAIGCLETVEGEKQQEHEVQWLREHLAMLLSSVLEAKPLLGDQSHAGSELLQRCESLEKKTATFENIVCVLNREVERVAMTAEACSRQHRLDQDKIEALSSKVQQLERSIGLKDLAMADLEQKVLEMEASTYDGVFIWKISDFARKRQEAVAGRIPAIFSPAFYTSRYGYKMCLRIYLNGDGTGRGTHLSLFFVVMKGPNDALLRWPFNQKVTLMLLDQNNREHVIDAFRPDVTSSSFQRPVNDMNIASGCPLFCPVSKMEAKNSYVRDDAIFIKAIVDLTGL
Test: Competitive GST-pull down assay, TRAF2 binding to RANK cytoplasmic domain
Conditions: 100 μM peptide, FLAG-TRAF2 293 cell extract (FIG. 4C)
Experimental: Cellular extracts from human 293 cells transfected with either FLAG-TRAF2, -TRAF5, or -TRAF6 were mixed with GST or GST-RANKed in the absence or presence of 100 μM of the indicated peptides. A GST-pull down assay was performed as described below. The bound TRAFs were visualized by immunoblotting with anti-FLAG antibodies.
Equivalent amounts of GST or GST-RANK cytoplasmic domain (GST-RANKed) fusion protein attached to 20 μl of glutathione agarose beads were mixed with lysates (50 μg) from 293 cells programmed to express the epitope-tagged TRAF protein and the indicated peptides in binding buffer (20 mM TRIS, pH 8, 150 mM NaCl, 1 mM DTT, 2 mM EDTA, and 0.1% NP-40) and allowed to rotate for 1 h at 4° C. The beads were collected by centrifugation, washed three times in binding buffer, and then washed once in low-salt buffer (20 mM TRIS, pH 8, 50 mM NaCl, and 1 mM DTT). Bound proteins were eluted with addition of SDS-sample buffer and boiled. The eluted proteins were subjected to 7.5% SDS-PAGE and western blot analysis was performed with anti-FLAG antibodies.
The cytoplasmic domain of RANK interacts with many TRAF molecules, including TRAF1, 2, 3, 5, and 6 (7-9, 11, 12). While TRAF1, 2, 3, and 5 interact with the c-terminal tail of receptor activator of NF-κB, TRAF6 interacts with a membrane proximal region of the cytoplasmic domain of the receptor activator of NF-κB. […]

## L-T6DP-1: Kaposi fibroblast growth factor signal sequence hydrophobic domain attached to murine RANK peptide containing the known TRAF6 binding domain (AAVALLPAVLLALLAPRKIPTEDEYTDRPSQPST; PEPTIDE Peptide L-T6Bp-1)
  TRAF2 binding to the cytoplasmic domain of RANK: neither L-T6DP-1 nor L-T6DP-2 inhibited
